Results on one molecule are retold here after PMC4388636.

For assay [1], the target named is toll like receptor-4 (human (endogenous in monocytes)) (UniProt O00206).
Assay [2] shares this target. The source holds these as a separate data set.
Assay [3] has the same target. This is another data set of the same source.
Assay [4] shares this target. This is another data set of the same source.

UniProt O00206, sequence (O00206 24-839): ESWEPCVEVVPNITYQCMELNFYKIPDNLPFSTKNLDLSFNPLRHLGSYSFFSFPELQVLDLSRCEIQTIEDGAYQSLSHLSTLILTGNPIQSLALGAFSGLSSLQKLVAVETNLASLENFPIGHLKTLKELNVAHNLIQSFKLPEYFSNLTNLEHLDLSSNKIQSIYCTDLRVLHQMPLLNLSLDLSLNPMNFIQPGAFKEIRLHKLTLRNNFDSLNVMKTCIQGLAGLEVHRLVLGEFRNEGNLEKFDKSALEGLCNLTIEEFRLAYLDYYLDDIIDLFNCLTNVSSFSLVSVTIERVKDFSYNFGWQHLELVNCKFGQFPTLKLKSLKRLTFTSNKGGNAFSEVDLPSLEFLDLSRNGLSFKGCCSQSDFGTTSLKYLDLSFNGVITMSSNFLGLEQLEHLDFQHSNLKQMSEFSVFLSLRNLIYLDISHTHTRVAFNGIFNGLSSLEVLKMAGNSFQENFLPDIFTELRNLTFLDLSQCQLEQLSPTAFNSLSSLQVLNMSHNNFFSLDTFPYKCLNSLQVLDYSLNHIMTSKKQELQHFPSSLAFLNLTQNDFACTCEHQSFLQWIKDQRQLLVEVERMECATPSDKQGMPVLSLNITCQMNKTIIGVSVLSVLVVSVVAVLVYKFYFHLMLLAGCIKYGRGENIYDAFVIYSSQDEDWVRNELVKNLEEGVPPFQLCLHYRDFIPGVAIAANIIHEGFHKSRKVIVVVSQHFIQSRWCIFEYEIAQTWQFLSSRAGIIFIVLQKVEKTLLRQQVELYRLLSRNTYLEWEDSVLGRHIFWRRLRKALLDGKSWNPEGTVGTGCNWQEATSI

B1: recombinant Wolbachia heat shock protein 60 (natural protein)
chain: MTNVVVSGEQLQEAFREVAVMVDSTVAITAGPRGKTVGINKPYGAPEITKDGYKVMKGIKPEKPLHAAITSIFAQSCFQCNDKVGDGTTTCSILTSNMIMEALKSIAAGNDRVSIKNGMQKAKDAVLEGITSMSRTIPLEKMDEVAQVAIISANGDKDIGNSIADAVKKVGKEGVITVEESKGSKELEVELTTGMQFDRGYLSPYFITSNEKMIVEFDDPYLLITEKKLSIIQPLLPILEAVVKSGKPLLIIAEDIEGEALSTLVINKLRGGLKVTAVKAPGFGDRRKEMLEDIAALTGAKYVIKDELGIKMEDLTLEDLGTAKNVKVTKDNTTIVSGSSDSDRVKARVEQIKSQIETSTSDYDKEKLRERLAKLSGGVAVLKVGGVTEVEVKERRDRVEDALHATRAAIEEGIVPGGGVALLYASSALDKLKGGSDEEQIGINIIKKVLSAPIKRLVKNAGLESAVIIDHLTKQNDKELIYNVEAMNYANAFTAGVIDPAKVVRIAFETAISVASVLITTESMIVDVPNKEENASSSMGAGGMGGMNGF
In assay [1], B1 yielded a dead monocytes after rWmhsp60, with rapamycin treatment before the stimulation of 7.5% and a late apoptotic monocytes after rWmhsp60, with rapamycin treatment before the stimulation of 6.5%. In addition, in assay [2], the SA-β-Gal–positive (senescent) monocytes after rWmhsp60 stood at 78% and the SA-β-Gal–positive (senescent) monocytes after rWmhsp60, with rapamycin pretreatment is 10%. Further, in assay [3], the dead monocytes (annexin-V-FITC-/PI+) after 24 h with rWmhsp60 worked out at 23%; the dead monocytes after rWmhsp60, with pretreatment by anti-TLR-4 monoclonal antibodies for 2 h stood at 6.5%; the late apoptotic monocytes (annexin-V-FITC+/PI+) after 24 h with rWmhsp60 is 18%; the late apoptotic monocytes after rWmhsp60, with pretreatment by anti-TLR-4 monoclonal antibodies for 2 h turned out to be 6%. In assay [4], the ROS levels in monocytes after rWmhsp60, fluorimetry with DCF2-DA, fold change is 3 fold and the loss of mitochondrial membrane potential in monocytes after rWmhsp60, fluorimetry with TMRE, fold change was 3 fold.
